Assay results published in patent JP2021136920A.
Values belong to the binder of their own block, whether it stands above or below them.

Tests used:
[1] = biological target: A−peakを架橋させたBSA(A−peak−BSA) (bovine) (UniProt P02769); assay: SPR, Biacore T200; A-peak-BSA amine-coupled on CM5 (72 RU), antibody 0.1953-50 nM, 1:1 binding model
[2] = biological target: Glycer−AGEs由来新規構造体修飾―ウシ血清アルブミン(GAL13−BSA) (bovine) (UniProt P02769); assay: SPR, Biacore T200; GAL13-BSA amine-coupled on CM5
[3] = biological target: グリセルアルデヒド由来AGEs含有ウシ血清アルブミン(Glycer−AGEs−BSA) (bovine) (UniProt P02769); assay: SPR, Biacore T200; Glycer-AGEs-BSA amine-coupled on CM5, antibody 0-400 nM

Kd [1]: 4.15 nM
B1: 新規モノクローナル抗体PB−1 (antibody, V domains shown)
VH: EVRLQQSGPELVKPGTSVKISCKASGYSFTGYYMHWVKQSPVKSLEWIGRIIPYNGATSYNQNFKDKASLTVDKSSRTAYMDLHSLTSEDSAVYYCARSRYYGRAPYYFDYWGQGTTLTVSS
VL: DVVVTQTPLSLPVSLGDQASISCRSSQSIVHSNGNTYLEWYLQKPGQSPKLLIYKVSNRFSGVPDRISGSGSGTDFTLKISRVEAGDLGVYSCFQGSHVPFTFGSGTKLEIK

Kd [2]: 87.5 nM | Kd [3]: 57.4 nM
B2: 新規モノクローナル抗体SJ−5 (antibody, V domains shown)
VH: EVMLVESGGRLVKPGGSLKLSCAASGFTFSSYGMSWVRQTPEKRLEWVATISGGGSYTYYPDSVKGRFTISRDNVKNNLYLQMSSLRSEDTALYYCARRGAYGDYGWFAYWGQGTLVTVSA
VL: DIVLTQSPATLSVTPGDSVSLSCRASQSINNNLHWYQQKSHESPRLLIKCASQSISGIPSRFSGSGSGTDFTLSINSVETEDFGMYFCQQSNSWPLTFGAGTKLELK
